Assay results reported in US20170065702A1.
Positions count from the first letter of the chain named. Read-outs that look alike come from different tables or passages of the source.

B1: CAN54G2 (antibody, V domains shown)
VH: QVQLQQSGTELVRPGTSVKISCKASGYDFTNFWLGWIKQRPGHGLEWIGDIYPGGDNTYYNEKFKGKVTLTADKSSNTAYMQFSSLTSEDSAVYFCFMILYTLDYWGQGTSVTVSS
VL: not shown
B2: CAN30G5 (antibody, V domains shown)
VH: EVQLVESGGGLVQPKGSLKLSCAASGFAFNSYAMHWVCQAPGKGLEWVARIRIKSGNYATSYAGSVTDRFTVSRDDSQNLFYLQMNNLKTEDTAMYYCVREWEGAMDYWGQGTSVTVSS
VL: DIVLTQSPLSLPVSLGDQASISCRSSQSLVHSNGNTYLHWYLQKPGQSPNLLIYKVSNRFSGVPDRFSGSGSGTDFTLKISRVEAEDLGVYFCSQSTHVPWTFGGGTKLEIK
B3: CAN30G2 (antibody, V domains shown)
VH: DVQLVESGGGLVQPGGSRKLSCTASGFTFSSFGMHWVRQAPEKGLEWVAYISSGSSKIYYADTVKGRFTISRDNPKNTLFLQMTSLRSEDTAMYYCARGWYEGAWFAYWGQGTLVTVSA
VL: DVLMTQTPLSLPVSLGDQASISCRSSQSIVHSNGDTYLEWYLQKPGQSPKLLIYKVSNRFSGVPDRFSGSGSGTDFTLRISRVEAEDLGVYYCFQGSHFPWTFGGGTKLEIK
B4: CAN30G4 (antibody, V domains shown)
VH: EVKLVESGGGLVKSGGSLKLSCAVSGFTFSTYAMSWVRQIPEKRLEWVATISNGGSYIYYSDSVKGRFTISRDNAKNTLYLQMSSLRSEDTAMYYCARHRESYRYDWFAYWGQGTLVTVSA
VL: B3 VL with S28N, N33D, D35N, V56F, R79K, F99V, W101P, G105A, I111L
B5: CAN30G3 (antibody, V domains shown)
VH: QVQLKESGPGLVAPSQSLSITCTVSGFSLTDYGITWIRQPPGKGLEWLGVIWGGGSAYYNLVLKSRLSISKDNSKSQVFLKMNSLQTDDTAMYYCAKHRTLITTAMDYWGQGISVTVSS
VL: B3 VL with S28N, D35N, P45S, R79K

Legend:
[1] = biological target: Marburg Ravn GP pin peptide … (Marburg virus, Ravn strain); experiment: pin peptide ELISA, pin printed as D6 beside … (SEQ ID NO: 195), read at 1 hour
[2] = biological target: Marburg Ravn GP pin peptide … (Marburg virus, Ravn strain)
[3] = biological target: Marburg Ravn GP pin peptide … (Marburg virus, Ravn strain); experiment: pin peptide ELISA, pin D4, supernatant diluted 1/5, read at 1 hour
[4] = biological target: Marburg Ravn GP pin peptide … (Marburg virus, Ravn strain); experiment: pin peptide ELISA, pin D5, supernatant diluted 1/5, read at 1 hour
[5] = biological target: Marburg Ravn GP pin peptide … (Marburg virus, Ravn strain); experiment: pin peptide ELISA, pin D6, supernatant diluted 1/5, read at 1 hour

| Binder | Absorbance (1 hour) [1] [absorbance] | Absorbance (1 hour) [2] [absorbance] | Absorbance (1 hour) [3] [absorbance] | Absorbance (1 hour) [4] [absorbance] | Absorbance (1 hour) [5] [absorbance] |
| --- | --- | --- | --- | --- | --- |
| B1 | 1.85 |  |  |  |  |
| B2 |  | > 3.9 | 0.631 |  |  |
| B3 |  |  | 0.848 | 0.373 |  |
| B4 |  | > 3.9 |  | 1.97 |  |
| B5 |  |  |  | 1.84 | 1.12 |
